Experimental data: article PMC7587174, “ACE Inhibitory Activity and Molecular Docking of Gac Seed Protein Hydrolysate Purified by HILIC and RP-HPLC” (Molecules, 2020)
Where two headings read alike, the source gives them in different places. Residues, ends and D or L forms follow the SMILES beside them. No end group written: not given here.

B1: LLVY (peptide)
peptide: LLVY
B2: ALVY (peptide)
peptide: ALVY
B3: LSTSTDVR (peptide)
peptide: LSTSTDVR
B4: LLAPHY (peptide)
peptide: LLAPHY

Key:
[1] = biological target: angiotensin I-converting enzyme (ACE) (Homo sapiens, UniProt P12821); assay: In vitro ACE inhibitory assay (HHL substrate, RP-HPLC detection); format: biochemical; conditions: synthetic peptides, purity >95%; HHL substrate 2.5 mM (30 µL), ACE 0.05 mU/µL (20 µL), pre-incubation 37 °C 5 min, incubation 37 °C 30 min; HPLC-UV 228 nm; non-linear regression, nine concentrations, repeated three times; read-out: IC50 of synthetic peptides against ACE
Sequence of angiotensin I-converting enzyme (ACE) (P12821 30-1306, species assumed): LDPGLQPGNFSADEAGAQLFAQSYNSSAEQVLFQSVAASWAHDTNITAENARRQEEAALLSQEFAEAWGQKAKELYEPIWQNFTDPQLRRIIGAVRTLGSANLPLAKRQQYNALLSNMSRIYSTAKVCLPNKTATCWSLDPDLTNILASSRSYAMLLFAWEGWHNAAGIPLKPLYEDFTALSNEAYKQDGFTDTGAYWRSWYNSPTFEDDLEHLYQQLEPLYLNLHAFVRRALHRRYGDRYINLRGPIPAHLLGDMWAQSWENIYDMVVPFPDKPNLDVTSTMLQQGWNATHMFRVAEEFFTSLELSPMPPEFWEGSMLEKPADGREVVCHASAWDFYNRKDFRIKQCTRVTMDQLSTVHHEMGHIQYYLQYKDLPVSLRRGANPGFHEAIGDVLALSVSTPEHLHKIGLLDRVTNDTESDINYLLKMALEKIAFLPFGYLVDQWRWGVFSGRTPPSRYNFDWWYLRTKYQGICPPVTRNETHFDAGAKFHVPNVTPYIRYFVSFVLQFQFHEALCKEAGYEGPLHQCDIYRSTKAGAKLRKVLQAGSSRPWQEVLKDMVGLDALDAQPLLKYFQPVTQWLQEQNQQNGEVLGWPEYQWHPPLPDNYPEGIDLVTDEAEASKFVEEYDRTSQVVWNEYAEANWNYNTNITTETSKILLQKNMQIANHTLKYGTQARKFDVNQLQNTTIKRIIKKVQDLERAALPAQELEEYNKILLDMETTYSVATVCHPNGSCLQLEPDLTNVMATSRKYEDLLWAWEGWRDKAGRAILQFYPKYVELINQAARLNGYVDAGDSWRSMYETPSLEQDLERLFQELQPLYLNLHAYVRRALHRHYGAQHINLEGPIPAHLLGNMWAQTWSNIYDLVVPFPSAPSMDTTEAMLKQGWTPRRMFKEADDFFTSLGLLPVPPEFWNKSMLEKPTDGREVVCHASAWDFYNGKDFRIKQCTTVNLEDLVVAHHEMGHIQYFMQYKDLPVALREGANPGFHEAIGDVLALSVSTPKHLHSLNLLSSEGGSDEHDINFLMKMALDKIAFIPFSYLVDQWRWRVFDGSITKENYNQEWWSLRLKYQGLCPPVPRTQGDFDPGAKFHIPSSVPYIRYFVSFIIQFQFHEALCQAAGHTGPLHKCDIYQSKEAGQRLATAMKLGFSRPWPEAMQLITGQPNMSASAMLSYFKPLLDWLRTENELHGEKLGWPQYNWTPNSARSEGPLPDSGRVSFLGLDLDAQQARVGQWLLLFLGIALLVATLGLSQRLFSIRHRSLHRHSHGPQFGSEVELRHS
Procedure: The method to determine the ACE inhibitory activity of gac seeds peptides hydrolysate was adapted according to a previous report with slight modification. Briefly, the sample dissolved in ddH2O (10 µL) was added to 2.5 mM hippuryl-L-histidyl-L-leucine (30 µL). Borate buffer (10 µL) was used as blank solution. In total, 50 µM Captopril (10 µL) was used as positive control. The samples, blank, and positive control were incubated at 37 °C for 5 min. Then, 0.05 mU/µL of ACE (20 µL) was added into each solution. The reaction mixture was incubated at 37 °C for 30 min and mixed in a shaker incubator at 200 rpm for 30 min. The reaction was stopped by adding 1 N HCl (60 µL). After, 0.25 mg/mL ferulic acid (10 µL) was added as an internal standard. Samples were centrifuged (Hitachi Koki Co., Ltd., Tokyo, Japan) at 15,000 rpm for 2 min. The samples were separated by RP-HPLC using a C18 column (4.6 mm × 250 mm, particle size 5 µm) (Macherey-Nagel, Duren, Germany). Samples were selected using an isocratic gradient of 95% solvent A and […] solvent B at a flow rate of 1 mL/min. Solvent A was prepared by 5% acetonitrile + 0.1% trifluoroacetic acid and solvent B was prepared by 95% acetonitrile + 0.1% trifluoroacetic acid. Absorbance was measured using a UV detector at 228 nm. ACE inhibitory activity (%) was examined in triplicate and calculated according to the following equation:ACE-inhibitory activity (%) = [1 − (ΔAinhibition)/(ΔAcontrol)] × 100%, where ΔAinhibition and ΔAcontrol are the peak areas in the sample with or without inhibitor.
The definition of IC50 is the peptide concentration required to inhibit 50% of angiotensin-converting enzyme. The IC50 was calculated using non-linear regression of the ACE inhibitory activity (%) from nine different concentrations. This assay was repeated three times for each experiment.

[2] = biological target: T1, ACE (Homo sapiens, UniProt P12821); assay: Kinetics of ACE inhibition (Lineweaver-Burk plot); format: biochemical; conditions: with increasing ALVY concentration
T1 sequence (P12821 30-1306, species assumed): as above
Procedure: Kinetics of ACE inhibition was determined by a previous method with some modifications. The hydrolysis rate of HHL by ACE over a range of HHL concentrations of 0.005, 0.1, 0.5, 1, and 2 mM was measured while varying the concentrations of ALVY. The modes of ACE inhibition were determined from Lineweaver-Burk plots while inhibition parameters (Vmax and Km) were calculated, respectively, as the Y- and X-axis intercepts of the primary plot.

[3] = biological target: T1, ACE; set-up: method as in 6 sources, ref 38 = [38]; PMID 31264418; doi:10.1021/acs.jafc.9b01922; 38. Shih Y.H. Chen F.A. Wang L.F. Hsu J.L. Discovery and study of novel antihypertensive peptides derived from cassia obtusifolia seeds J. Agric. Food Chem. 2019 67 7810 7820 10.1021/acs.jafc.9b01922 ||| ref 39 = [39]; PMID 26948626; doi:10.1016/j.foodchem.2016.02.097; 39. Gangopadhyay N. Wynne K. O’Connor P. Gallagher E. Brunton N.P. Rai D.K. Hayes M. In silico and in vitro analyses of the angiotensin-I converting enzyme inhibitory activity of hydrolysates generate ||| ref 40 = [40]; PMID 26344130; doi:10.1016/j.jprot.2015.08.018; 40. Priyanto A.D. Doerksen R.J. Chang C.-I. Sung W.-C. Widjanarko S.B. Kusnadi J. Lin Y.-C. Wang T.-C. Hsu J.-L. Screening, discovery, and characterization of angiotensin-I converting enzyme inhibitor ||| ref 41 = [41]; PMID 29112398; doi:10.1021/acs.jafc.7b04522; 41. Orio L.P. Boschin G. Recca T. Morelli C.F. Ragona L. Francescato P. Arnoldi A. Speranza G. New ACE-inhibitory peptides from hemp seed ( Cannabis sativa L.) proteins J. Agric. Food Chem. 2017 65 10 ||| ref 42 = [42]; PMID 21381782; doi:10.1021/jf104998s; 42. Yang R. Zou Y. Yu N. Gu Z. Accumulation and identification of angiotensin-converting enzyme inhibitory peptides from wheat germ J. Agric. Food Chem. 2011 59 3598 3605 10.1021/jf104998s 21381782 ||| ...; conditions: cited from earlier work
[4] = biological target: Angiotensin I-converting enzyme (UniProt P12821)
Sequence of Angiotensin I-converting enzyme (P12821 30-1306): as the sequence (P12821 30-1306, species assumed) above

Molecule	IC50 [1]	IC50 of ACE inhibitory activity (hydrolysis of hippuryl-L-histidyl-L-leucine by ACE, 37 °C, RP-HPLC read-out at 228 nm; synthetic peptide, nine concentrations) [4]	also measured
CC(C)C[C@H](NC(=O)[C@H](C)N)C(=O)N[C@H](C(=O)N[C@@H](Cc1ccc(O)cc1)C(=O)O)C(C)C [ALVY] (H-ALVY-OH)	7.03 ± 0.09 µM		Effect on Km [2]: increased with the increasing peptide concentration
CC(C)C[C@H](NC(=O)[C@@H](N)CC(C)C)C(=O)N[C@H](C(=O)N[C@@H](Cc1ccc(O)cc1)C(=O)O)C(C)C [LLVY] (H-LLVY-OH)	87.8 ± 3.37 µM		
FHAPWK [peptide from Cassia obtusifolia seeds]			IC50 ([3]; Cassia obtusifolia seeds, read-out: IC50 (Cassia obtusifolia seeds peptide)): 16.8 µM
LLAPHY [LLAPHY]	15.9 ± 0.52 µM		
LSTSTDVR-OH [LSTSTDVR]	> 167 µM		
VSGAGRY [peptide from bitter melon seeds]			IC50 ([3]; bitter melon seeds, read-out: IC50 (bitter melon seeds peptide)): 8.6 µM
B1		87.8 µM	
B2		7.03 µM	
B3		> 167 µM	
B4		15.9 µM	
